These results are taken from publication PMC8626469 (2021).

Assay [1] addresses T1, Helicobacter pylori FabX (H. pylori).
T1 chain: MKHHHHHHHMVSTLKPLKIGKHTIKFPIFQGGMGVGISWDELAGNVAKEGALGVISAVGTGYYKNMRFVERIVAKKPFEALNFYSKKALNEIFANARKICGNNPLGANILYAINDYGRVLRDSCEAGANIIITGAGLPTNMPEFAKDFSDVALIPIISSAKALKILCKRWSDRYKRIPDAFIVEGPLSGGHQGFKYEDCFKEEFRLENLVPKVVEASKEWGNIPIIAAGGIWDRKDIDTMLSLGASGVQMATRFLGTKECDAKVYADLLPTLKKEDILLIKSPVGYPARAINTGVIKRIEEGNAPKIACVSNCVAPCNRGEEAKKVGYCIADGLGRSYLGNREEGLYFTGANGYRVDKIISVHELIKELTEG
The assay can be described thus: ITC. (In general: In ITC the heat of successive injections is recorded.)

Assay [2] concerns the target Helicobacter pylori FabX R164A (H. pylori). The assay can be described thus: ITC.

B1: Helicobacter pylori holo-acyl carrier protein (natural protein)
chain: MALFEDIQAVIAEQLNVDAVQVTPEAEFVKDLGADSLDVVELIMALEEKFGVEIPDEQAEKIINVGDVVKYIEDNKLA
modifications: phosphopantetheine group (PPant) on Ser36
Take B1: the results for the Kd in assay [1] and in assay [2] were 1640 nM and over 200000 nM, respectively.

By Kd is commonly meant a measure of binding affinity in units of concentration.
